In publication PMC314469, “Protein Interaction Networks by Proteome Peptide Scanning” (PLoS Biology, 2004):

T1: Boi1 SH3 (BOI1_YEAST), P38041
T1 chain: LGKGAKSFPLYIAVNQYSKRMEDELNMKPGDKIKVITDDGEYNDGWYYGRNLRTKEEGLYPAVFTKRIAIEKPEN

T2: Boi2 SH3 (BOI2_YEAST), P39969
T2 chain: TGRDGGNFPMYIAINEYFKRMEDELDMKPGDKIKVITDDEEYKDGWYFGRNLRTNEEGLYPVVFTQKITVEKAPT

T3: Rvs167 SH3 (RV167_YEAST), P39743
T3 chain: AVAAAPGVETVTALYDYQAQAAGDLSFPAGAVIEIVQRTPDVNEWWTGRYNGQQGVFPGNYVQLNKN

T4: Yfr024 SH3 (LSB3_YEAST), P43603
T4 chain: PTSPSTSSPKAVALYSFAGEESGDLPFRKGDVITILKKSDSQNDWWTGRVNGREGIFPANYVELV

T5: Yhr016c SH3 (YSC84_YEAST), P32793
T5 chain: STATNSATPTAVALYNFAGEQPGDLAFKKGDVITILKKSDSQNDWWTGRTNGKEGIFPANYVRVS


Target: T1, Boi1 SH3 (BOI1_YEAST), P38041
Test: SPOT array

normalised SPOT signal, Boehringer light units (BLU); mean over the file's lines of this peptide	Binder
100	SVLPQTPLKDVMGG [YOR326W 1092-1105]
69.2	SSQPRPPPRPQQNP [YGR268C 71-84]
17.1	SSYPMNPPKISFMQ [YGR133W 86-99]
468	SSFPTIPLRASSGA [YER006W 232-245]
76.5	SSSPFIPKKRKPRS [YLR430W 2218-2231]
100	SRPPRPPPKPLHLR [YIL095W 747-760]
311	STRPQMPSRTRETA [YJR090C 50-63]
120	SSLPLGPIKERSKQ [YMR012W 146-159]
194	STPPTLPPRRIEDP [YMR192W 200-213]
368	SSRPTSPVRKARST [YER173W 28-41]
25.6	SSNPDDPIRVTTPM [YOL004W 293-306]
818	SSTPTTPERPKRKS [YHR182W 758-771]
56800	SSPPPLPTRRDHIK [YPR171W 184-197]
51.7	SRKPPIPAKQHVKK [YIL156W 547-560]
1100	SSRPMPPIRGPKRR [YLR147C 88-101]
56.2	SSTPIVPNRLKTVL [YHR164C 158-171]
71.5	SSIPPNPGKTAKPI [YBR198C 108-121]
356	STSPPRPKRIVVAI [YDR538W 48-61]
66.2	SSLPSPPAKKSATS [YOL006C 72-85]
78.9	SSMPNSPKKPVDSL [YDL117W 117-130]
5220	STSPKLPPRGKQRE [YPL249C 293-306]
47	SQSPKRPKKYPKKA [YNL080C 295-308]

Target: T2, Boi2 SH3 (BOI2_YEAST), P39969
Test: SPOT array

normalised SPOT signal, Boehringer light units (BLU); mean over the file's lines of this peptide	Binder
10.3	SVLPQTPLKDVMGG [YOR326W 1092-1105]
5.7	SSQPRPPPRPQQNP [YGR268C 71-84]
111	SSYPMNPPKISFMQ [YGR133W 86-99]
9.1	SSFPTIPLRASSGA [YER006W 232-245]
92	SSSPFIPKKRKPRS [YLR430W 2218-2231]
216	SRPPRPPPKPLHLR [YIL095W 747-760]
43.5	STRPQMPSRTRETA [YJR090C 50-63]
19.3	SSLPLGPIKERSKQ [YMR012W 146-159]
44.5	STPPTLPPRRIEDP [YMR192W 200-213]
73.1	SSRPTSPVRKARST [YER173W 28-41]
75.1	SSNPDDPIRVTTPM [YOL004W 293-306]
36.8	SSTPTTPERPKRKS [YHR182W 758-771]
361	SSPPPLPTRRDHIK [YPR171W 184-197]
-0	SRKPPIPAKQHVKK [YIL156W 547-560]
376	SSRPMPPIRGPKRR [YLR147C 88-101]
10.8	SSTPIVPNRLKTVL [YHR164C 158-171]
42.9	SSIPPNPGKTAKPI [YBR198C 108-121]
79.7	STSPPRPKRIVVAI [YDR538W 48-61]
16.7	SSLPSPPAKKSATS [YOL006C 72-85]
90.7	SSMPNSPKKPVDSL [YDL117W 117-130]
90.9	STSPKLPPRGKQRE [YPL249C 293-306]
36.6	SQSPKRPKKYPKKA [YNL080C 295-308]

Target: T3, Rvs167 SH3 (RV167_YEAST), P39743
Test: SPOT array

normalised SPOT signal, Boehringer light units (BLU); mean over the file's lines of this peptide	Binder
44.5	SVLPQTPLKDVMGG [YOR326W 1092-1105]
956	SSQPRPPPRPQQNP [YGR268C 71-84]
65.4	SSYPMNPPKISFMQ [YGR133W 86-99]
786	SSFPTIPLRASSGA [YER006W 232-245]
42.9	SSSPFIPKKRKPRS [YLR430W 2218-2231]
565	SRPPRPPPKPLHLR [YIL095W 747-760]
74.7	STRPQMPSRTRETA [YJR090C 50-63]
15.4	SSLPLGPIKERSKQ [YMR012W 146-159]
24400	STPPTLPPRRIEDP [YMR192W 200-213]
98.3	SSRPTSPVRKARST [YER173W 28-41]
20.9	SSNPDDPIRVTTPM [YOL004W 293-306]
579	SSTPTTPERPKRKS [YHR182W 758-771]
33600	SSPPPLPTRRDHIK [YPR171W 184-197]
14.9	SRKPPIPAKQHVKK [YIL156W 547-560]
771	SSRPMPPIRGPKRR [YLR147C 88-101]
1490	SSTPIVPNRLKTVL [YHR164C 158-171]
56.1	SSIPPNPGKTAKPI [YBR198C 108-121]
182	STSPPRPKRIVVAI [YDR538W 48-61]
40.7	SSLPSPPAKKSATS [YOL006C 72-85]
335	SSMPNSPKKPVDSL [YDL117W 117-130]
57900	STSPKLPPRGKQRE [YPL249C 293-306]
57.3	SQSPKRPKKYPKKA [YNL080C 295-308]

Target: T4, Yfr024 SH3 (LSB3_YEAST), P43603
Test: SPOT array

normalised SPOT signal, Boehringer light units (BLU); mean over the file's lines of this peptide	Binder
179	SVLPQTPLKDVMGG [YOR326W 1092-1105]
8620	SSQPRPPPRPQQNP [YGR268C 71-84]
440	SSYPMNPPKISFMQ [YGR133W 86-99]
3160	SSFPTIPLRASSGA [YER006W 232-245]
1970	SSSPFIPKKRKPRS [YLR430W 2218-2231]
25900	SRPPRPPPKPLHLR [YIL095W 747-760]
4030	STRPQMPSRTRETA [YJR090C 50-63]
78	SSLPLGPIKERSKQ [YMR012W 146-159]
27500	STPPTLPPRRIEDP [YMR192W 200-213]
1780	SSRPTSPVRKARST [YER173W 28-41]
85	SSNPDDPIRVTTPM [YOL004W 293-306]
58100	SSTPTTPERPKRKS [YHR182W 758-771]
35200	SSPPPLPTRRDHIK [YPR171W 184-197]
4850	SRKPPIPAKQHVKK [YIL156W 547-560]
11600	SSRPMPPIRGPKRR [YLR147C 88-101]
6570	SSTPIVPNRLKTVL [YHR164C 158-171]
135	SSIPPNPGKTAKPI [YBR198C 108-121]
3980	STSPPRPKRIVVAI [YDR538W 48-61]
300	SSLPSPPAKKSATS [YOL006C 72-85]
902	SSMPNSPKKPVDSL [YDL117W 117-130]
20400	STSPKLPPRGKQRE [YPL249C 293-306]
624	SQSPKRPKKYPKKA [YNL080C 295-308]

Target: T5, Yhr016c SH3 (YSC84_YEAST), P32793
Test: SPOT array

normalised SPOT signal, Boehringer light units (BLU); mean over the file's lines of this peptide	Binder
127	SVLPQTPLKDVMGG [YOR326W 1092-1105]
2040	SSQPRPPPRPQQNP [YGR268C 71-84]
215	SSYPMNPPKISFMQ [YGR133W 86-99]
777	SSFPTIPLRASSGA [YER006W 232-245]
258	SSSPFIPKKRKPRS [YLR430W 2218-2231]
1020	SRPPRPPPKPLHLR [YIL095W 747-760]
37.5	STRPQMPSRTRETA [YJR090C 50-63]
-0	SSLPLGPIKERSKQ [YMR012W 146-159]
49300	STPPTLPPRRIEDP [YMR192W 200-213]
317	SSRPTSPVRKARST [YER173W 28-41]
282	SSNPDDPIRVTTPM [YOL004W 293-306]
31700	SSTPTTPERPKRKS [YHR182W 758-771]
117000	SSPPPLPTRRDHIK [YPR171W 184-197]
35.2	SRKPPIPAKQHVKK [YIL156W 547-560]
1900	SSRPMPPIRGPKRR [YLR147C 88-101]
1960	SSTPIVPNRLKTVL [YHR164C 158-171]
429	SSIPPNPGKTAKPI [YBR198C 108-121]
1340	STSPPRPKRIVVAI [YDR538W 48-61]
61.3	SSLPSPPAKKSATS [YOL006C 72-85]
108	SSMPNSPKKPVDSL [YDL117W 117-130]
72500	STSPKLPPRGKQRE [YPL249C 293-306]
214	SQSPKRPKKYPKKA [YNL080C 295-308]
